The target in test [1] is Protease C (SEQ ID NO 6) variant S100I (Lederbergia lenta (Bacillus lentus)) (UniProt P29600). As to the kind of experiment: Ki fitted from Suc-AAPF-pNA activity in Model B detergent; IF relative to SEQ ID NO 6.
The target in test [2] is Protease C (SEQ ID NO 6) variant S100I + L134V (Lederbergia lenta (Bacillus lentus)) (UniProt P29600). The test is described as above.
Test [3] concerns the target Protease C (SEQ ID NO 6) variant N60F (Lederbergia lenta (Bacillus lentus)) (UniProt P29600). Described as above.
Test [4] deals with Protease C (SEQ ID NO 6) variant Y166F (Lederbergia lenta (Bacillus lentus)) (UniProt P29600). The test is described as above.
Test [5] addresses Protease C (SEQ ID NO 6) variant N60H (Lederbergia lenta (Bacillus lentus)) (UniProt P29600). The description is as above.
The target of test [6] is Protease C (SEQ ID NO 6) variant S100I + Y166F (Lederbergia lenta (Bacillus lentus)) (UniProt P29600). The test is described as above.
In test [7] the target is Protease C (SEQ ID NO 6) variant N60H + S100I (Lederbergia lenta (Bacillus lentus)) (UniProt P29600). The test is described as above.
Test [8] has as its target TY145 (SEQ ID NO 3) variant K146N + S173P + S175P + F180Y. As to the kind of experiment: Ki fitted from Suc-AAPF-pNA activity in Model B detergent; IF relative to SEQ ID NO 3 comprising S173P + S175P + F180Y.
The target of test [9] is TY145 (SEQ ID NO 3) variant S173P + S175P + F180Y + G182S. The test is described as above.
Test [10] addresses TY145 (SEQ ID NO 3) variant S114Q + S173P + S175P + F180Y. The description is as above.
Test [11] addresses TY145 (SEQ ID NO 3) variant S114A + S173P + S175P + F180Y. Described as above.
Test [12] deals with TY145 (SEQ ID NO 3) variant Q70A + S173P + S175P + F180Y. The test is described as above.
For test [13], the target named is TY145 (SEQ ID NO 3) variant Q70H + S173P + S175P + F180Y. Described as above.
Chain of TY145 (SEQ ID NO 3) variant Q70H + S173P + S175P + F180Y (chain, as listed by the source Q70H S173P S175P F180Y Q70H S173P S175P F180Y limits assumed): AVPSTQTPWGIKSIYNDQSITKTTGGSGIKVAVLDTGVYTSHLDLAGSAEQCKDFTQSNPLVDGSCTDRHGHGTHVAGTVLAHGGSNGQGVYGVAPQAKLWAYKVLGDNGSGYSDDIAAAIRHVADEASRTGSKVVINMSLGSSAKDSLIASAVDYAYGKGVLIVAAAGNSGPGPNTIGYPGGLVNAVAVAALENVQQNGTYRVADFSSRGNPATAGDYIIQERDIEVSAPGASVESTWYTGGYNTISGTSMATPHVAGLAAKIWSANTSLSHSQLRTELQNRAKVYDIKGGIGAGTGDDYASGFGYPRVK
Test [14] deals with TY145 (SEQ ID NO 3) variant I150N + S173P + S175P + F180Y. Described as above.
Test [15] deals with TY145 (SEQ ID NO 3) variant S173P + S175P + F180Y + L184W. The description is as above.
In test [16] the target is TY145 (SEQ ID NO 3) variant K146W + S173P + S175P + F180Y. Described as above.
Test [17] deals with TY145 (SEQ ID NO 3) variant I150T + S173P + S175P + F180Y. The test is described as above.
Chain of TY145 (SEQ ID NO 3) variant I150T + S173P + S175P + F180Y (chain, as listed by the source I150T S173P S175P F180Y I150T S173P S175P F180Y limits assumed): as the sequence (chain, as listed by the source Q70H S173P S175P F180Y Q70H S173P S175P F180Y limits assumed) above, with H70Q, I150T counted along it
Test [18] has as its target TY145 (SEQ ID NO 3) variant I150A + S173P + S175P + F180Y. The description is as above.
In test [19] the target is TY145 (SEQ ID NO 3) variant I150S + S173P + S175P + F180Y. Described as above.
Test [20] concerns the target TY145 (SEQ ID NO 3) variant S173P + S175P + I178Y + F180Y. The description is as above.
For test [21], the target named is TY145 (SEQ ID NO 3) variant K146T + S173P + S175P + F180Y. The test is described as above.
Test [22] addresses TY145 (SEQ ID NO 3) variant S173P + S175P + F180Y + L184F. The test is described as above.

Drawing on US20170342349A1, “STABILIZED ENZYME COMPOSITIONS” (NOVOZYMES A/S, priority 2014, published 2017), this text covers IF (binding constant improvement factor, relative Ki) for one substance.

For “Inhibitor 1: Cbz-Gly-Ala-NHCH(CH2C6H4pOH)C(OH)(SO3Na)-H (peptide)”, the IF (binding constant improvement factor, relative Ki) in [1] was 6.46; in test [2] it was 15.1; in test [3], 3.25; in test [4], 1.31; in test [5] it was 1.24; in test [6] it was 11.3. Moreover, the IF (binding constant improvement factor, relative Ki) in test [7] worked out at 6.65; in test [8], 1.36; in test [9], 1.69; in [10], 2.03; in test [11], 3.33; in [12], 4.13. Besides, the IF (binding constant improvement factor, relative Ki) in test [13] turned out to be 3.78; in test [14], 3.58; in test [15], 2.23; in test [16] it was 5.47; in test [17] it was 4.15; in [18], 2.52. Moreover, the IF (binding constant improvement factor, relative Ki) is 5.7 in test [19], 2.15 in test [20], 15.9 in test [21] and 4.28 in [22].
